Substrate in the data set: OCCc1ccc(O)cc1
In words: purified protein. Particulars: UDP-glucose co-substrate (2 mM), tyrosol varied 0.5-5 mM, 50 mM Tris-HCl, pH 8.6, 30°C, 30 min. Format: biochemical, Rhodiola crenulata.

B1: RcUGT1 (Rhodiola crenulata) (protein)
chain: MDSDSRPLRVFFFPFMAHGHLIPMVDIARLFSSQGVHSTIITTPLNANYISKTTSLSIKTLPFQASKVGLPDGCENVDMLPSPDLIFKFFQAANLLQKPFENLLELEKPDCLISDIFFPWSVDSAGKFNIPRLVFHGTSFFAMCAMESLKTHKPYKSVSTDSEPFVIPNLPDEIKMTKSQFTVDAWEDTEKGVGKLLADARASGLRSFGVVVNSFYELEPAYADYYKNVLNMKAWCVGPVSVCYRNDEEKIARGKKSAIDDHECLKWLEGKQPDSVVYVCFGSGASFPDEQLRDIALGLEDSGVNFIWVIRRSSESGSEDYLPEGFEDRVEGSGLVIRGWAPQVLILDHPSVGGFVTHCGWNSALEGISAGLPMVTWPLFAEQFFNQKLITDVLKIGVEVGVQKWSRNGEDRVTKEKVEKAVRAVMVGEVAEERRGRARQLGKLAKNAAAKDGSSFIDLHNLLDELKLRRVPLS
notes: 6xHis tag (pQE30), E. coli M15, Ni-NTA purified; primers encode ends MDSDSRP...RRVPLS
With B1, the Km came to 972.75 ± 104.31 µM, the Vmax is 0.0172 µmol/min/mg and the kcat worked out at 0.0155 ± 0.00044 s⁻¹.

As usually defined, the Km is the substrate concentration at which the rate is half of its maximum. One may read the Vmax as the rate approached at saturating substrate. A word on the kcat: it is the number of substrate molecules converted per active site and unit of time at saturation.

(Values after PMC6031081, “A Novel UDP-Glycosyltransferase of Rhodiola crenulata Converts Tyrosol to Specifically Produce Icariside D2” (BioMed Research International, 2018).)
